{"source": "paper PMC8113726", "molecular_target": "Xenopus cyclase-associated protein 1 (XCAP1) (X. laevis (endogenous in oocytes))", "assay": "SEC-MALS + AUC; purified native XCAP1-actin complex; SEC-MALS on SRT SEC-300 in PBS pH 7.2, 0.02% NaN3, 20 °C; sedimentation velocity at 40,000 rpm, 20 °C"}
{"substance": "Xenopus cyclase-associated protein 1 (XCAP1) (natural protein)", "values": [{"measurement": "stoichiometry N", "result": 4}]}
